Data as given in article PMC10158025.

Target: CtBP2-Gluc-N / CtBP2-Gluc-C (CtBP-Gluc-PCA reporter) (human) (UniProt P56545)
Assay: split reporter (BiFC, NanoBiT); Gluc-PCA in 293 cells co-transfected with the Gluc-N and Gluc-C fusions, luminance read; MTOB treatment gave a dose-dependent reduction of the signal

fold lower Gluc-PCA signal than the Zip-Zip dimer: 10 fold
Substance: CtBP2-Gluc-N / CtBP2-Gluc-C (CtBP-Gluc-PCA reporter), P56545 1-445 (natural protein; other documents disagree on this pair)
